Results taken from US20210261667A1 (SHANGHAI NOVAMAB BIOPHARMACEUTICALS, published 2021).

What was measured:
Assay in all cases: ELISA on coated antigen, A405 nm
human PD-L2 = target: T1, human PD-L2 (human, UniProt Q9BQ51 20-220, limits assumed)
T1 sequence (looked up): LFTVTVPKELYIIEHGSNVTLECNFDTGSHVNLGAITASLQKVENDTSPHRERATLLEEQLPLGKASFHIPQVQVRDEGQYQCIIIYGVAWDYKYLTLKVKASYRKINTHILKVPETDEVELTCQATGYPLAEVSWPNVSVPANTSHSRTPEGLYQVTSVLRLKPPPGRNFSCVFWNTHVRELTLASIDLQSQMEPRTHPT

PD-L1 (mouse) = target: T2, PD-L1 (mouse) (mouse, UniProt Q9EP73 19-238, limits assumed)
T2 construct: also called mouse PD-L1; murine PD-L1

human B7H3 = target: T3, human B7H3 (human, UniProt Q5ZPR3-2 29-245, limits assumed)
T3 sequence (looked up): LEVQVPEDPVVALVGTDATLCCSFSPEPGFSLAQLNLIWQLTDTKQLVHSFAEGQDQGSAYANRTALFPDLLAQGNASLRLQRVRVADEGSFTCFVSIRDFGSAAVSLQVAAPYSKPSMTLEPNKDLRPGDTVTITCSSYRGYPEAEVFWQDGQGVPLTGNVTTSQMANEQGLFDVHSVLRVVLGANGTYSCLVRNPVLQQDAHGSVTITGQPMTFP

B7H4 = target: T4, B7H4 (human, UniProt Q7Z7D3 29-258, limits assumed)
T4 sequence (looked up): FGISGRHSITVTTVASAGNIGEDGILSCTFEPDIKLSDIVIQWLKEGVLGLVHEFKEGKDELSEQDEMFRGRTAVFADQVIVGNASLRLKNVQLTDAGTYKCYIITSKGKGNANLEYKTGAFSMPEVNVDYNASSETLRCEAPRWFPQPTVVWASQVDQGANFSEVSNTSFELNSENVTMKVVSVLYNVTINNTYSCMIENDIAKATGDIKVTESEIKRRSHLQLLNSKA

Measured: binding result

T2 sequence (Q9EP73 19-238 limits assumed): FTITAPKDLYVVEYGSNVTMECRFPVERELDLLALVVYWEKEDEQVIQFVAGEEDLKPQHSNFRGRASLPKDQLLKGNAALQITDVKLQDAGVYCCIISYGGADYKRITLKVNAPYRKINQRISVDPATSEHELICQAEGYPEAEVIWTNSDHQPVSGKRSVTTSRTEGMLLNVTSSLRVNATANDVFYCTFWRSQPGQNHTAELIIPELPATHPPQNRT

B1: bivalent anti-PD-L1 single-domain antibody before humanization (Fc fusion)
chain: QVQLQESGGGSVQAGGSLRLSCTASGYNLSPSCMGWFRQAPGKEREGVAFTDADGSTRYADSVKARFTISRDNAENTLYLQMNSLKPEDTAMYYCAADFFSYCSVVFRASARDKYRGQGTQVTVSS
notes: also called bivalent PD-L1 single-domain antibody before humanization; bivalent single-domain antibody before humanization; not shown: IgG1 Fc of vector pFUSE-IgG1
no binding: all assays above
